Source: patent publication US8357518B2, “Thermostable enzymes for the hydrolysis of mannan-containing polysaccharides” (The Board of Trustees of the University of Illinois, priority 2010, dated 2013)

Legend:
Assay in all cases: Catalytic efficiency with oligosaccharides, HPAEC (Man5A-TM1)
Type in all cases: biochemical, Caldanaerobius polysaccharolyticus
Settings in all cases: other: Man5A-TM1 0.3 μM, oligosaccharide 30 μM, citrate buffer 50 mM, pH 5.5, 5 min, triplicate
[1] = substrate: OC[C@H]1O[C@@H](O[C@H]2[C@H](O)[C@H](O)[C@H](O[C@H]3[C@H](O)[C@H](O)[C@H](O[C@H]4[C@H](O)[C@H](O)C(O)O[C@@H]4CO)O[C@@H]3CO)O[C@@H]2CO)[C@@H](O)[C@@H](O)[C@@H]1O
Method: (§1) Cloning, expression, and purification of Man5A-TM1, Man5A-TM2 and Man5B. C. polysaccharolyticus was cultured in TYG medium and DNA was isolated from mid-log cultures and purified using the Qiagen DNeasy Blood and Tissue kit with an integrated RNase treatment step. The genome of C. polysaccharolyticus was partially sequenced by the W. M. Keck Biotechnology Center at the University of Illinois at Urbana-Champaign. A Newbler assembly was generated which is comprised of ½ plate of FLX PE 454 data and ½ plate of 8 kb paired-end GSFLX Titanium data using a Genome Sequencer instrument from 454 Life Sciences (Branford, Conn.). The partial genome sequence was uploaded onto the Rapid Annotation using Subsystem Technology (RAST) server (Aziz et al., BMC Genomics, 9:75, 2008). Auto-annotation of the C. polysaccharolyticus partial genome sequence identified ORF0760 as a gene predicted to encode a bifunctional β-D-mannanase/endoglucanase (Man5B). Man5A was previously identified in a recombinant phage library of C. polysaccharolyticus genomic DNA, which was screened for endoglucanase activity (Cann et al., J Bacteriol, 181:1643, 1999) and the full sequence of this gene was also identified in the partial genome sequence for C. polysaccharolyticus.
(§2) The DNA sequence corresponding to man5B was amplified by the PicoMaxx high fidelity PCR kit using genomic DNA as the template with the primer set Man5B-Forward and Man5B-Reverse (Table 1-1). The primers were engineered to incorporate a 5′-[…] (SEQ ID NO: 54) extension in Man5B-F and a 5′-[…] (SEQ ID NO: 55) extension in Man5B-R, which facilitated subsequent directional cloning. The resultant man5B amplicon was then digested with T4 DNA polymerase exonuclease activity, annealed with a similarly digested pET-46b vector and introduced into E. coli JM109 by electroporation. Man5A-TM1 was amplified using genomic DNA as template with primers Man5A-TM1-F and Man5A-TM1-R (Table 1-1). The primer sets for Man5A-TM1 and Man5A-TM2 were designed to include 5′-NdeI and 3′-XhoI restriction sites for subsequent directional cloning. The resulting amplicons were then cloned into the pGEM-T vector via TA-cloning and subcloned in-frame with the hexahistidine (His6) encoding sequence of a modified pET-28a expression vector via its NdeI-XhoI polylinker site. The truncated protein Man5A-TM2 originally named ManA-SLH-CBD was cloned as described in a previous study (Cann et al., J Bacteriol, 181:1643, 1999). Expression of each of the resulting gene constructs yielded fusion proteins containing an N-terminal polyhistidine tag sequence to facilitate affinity purification via metal chelate chromatography. The resulting plasmid constructs pET46-Man5B, pET28a-Man5A-TM1, and pET-28a-Man5A-TM2 were sequenced to confirm the integrity of the cloned genes (W. M. Keck Center for Comparative and Functional Genomics at the University of Illinois at Urbana-Champaign).
(§3) The plasmid constructs were then introduced into E. coli BL-21 CodonPlus (DE3) RIL competent cells by heat shock, and grown overnight in lysogeny broth (LB) agar medium supplemented with ampicillin (100 μg/mL) and chloramphenicol (50 μg/mL) at 37° C. After 12 h, single colonies were selected and used to inoculate fresh LB (10 mL) supplemented with the antibiotics above at the same concentrations, followed by culturing with aeration for 8 h at 37° C. The pre-cultures were then inoculated into fresh LB (1 L) supplemented with ampicillin and chloramphenicol and the cultures were incubated at 37° C. with vigorous aeration (225 rpm/min). The cultures were grown to an optical density of 0.3 at 600 nm, and the temperature was shifted to 16° C. and gene expression was induced by the addition of 0.1 mM isopropyl β-D-thiogalactopyranoside (IPTG). […]

[2] = substrate: OC[C@H]1O[C@@H](O[C@H]2[C@H](O)[C@@H](O)[C@H](O[C@H]3[C@H](O)[C@@H](O)[C@H](O[C@H]4[C@H](O)[C@@H](O)[C@H](O[C@H]5[C@H](O)[C@@H](O)C(O)O[C@@H]5CO)O[C@@H]4CO)O[C@@H]3CO)O[C@@H]2CO)[C@H](O)[C@@H](O)[C@@H]1O
Method: as §1, §2, §3

[3] = substrate: OC[C@H]1O[C@@H](O[C@H]2[C@H](O)[C@H](O)[C@H](O[C@H]3[C@H](O)[C@H](O)[C@H](O[C@H]4[C@H](O)[C@H](O)[C@H](O[C@H]5[C@H](O)[C@H](O)C(O)O[C@@H]5CO)O[C@@H]4CO)O[C@@H]3CO)O[C@@H]2CO)[C@@H](O)[C@@H](O)[C@@H]1O
Method: as §1, §2, §3

[4] = substrate: OC[C@H]1O[C@@H](O[C@H]2[C@H](O)[C@@H](O)[C@H](O[C@H]3[C@H](O)[C@@H](O)[C@H](O[C@H]4[C@H](O)[C@@H](O)C(O)O[C@@H]4CO)O[C@@H]3CO)O[C@@H]2CO)[C@H](O)[C@@H](O)[C@@H]1O
Method: as §1, §2, §3

[5] = substrate: OC[C@H]1O[C@@H](O[C@H]2[C@H](O)[C@@H](O)[C@H](O[C@H]3[C@H](O)[C@@H](O)[C@H](O[C@H]4[C@H](O)[C@@H](O)[C@H](O[C@H]5[C@H](O)[C@@H](O)[C@H](O[C@H]6[C@H](O)[C@@H](O)C(O)O[C@@H]6CO)O[C@@H]5CO)O[C@@H]4CO)O[C@@H]3CO)O[C@@H]2CO)[C@H](O)[C@@H](O)[C@@H]1O
Method: as §1, §2, §3

[6] = substrate: OC[C@H]1O[C@@H](O[C@H]2[C@H](O)[C@H](O)[C@H](O[C@H]3[C@H](O)[C@H](O)[C@H](O[C@H]4[C@H](O)[C@H](O)[C@H](O[C@H]5[C@H](O)[C@H](O)[C@H](O[C@H]6[C@H](O)[C@H](O)C(O)O[C@@H]6CO)O[C@@H]5CO)O[C@@H]4CO)O[C@@H]3CO)O[C@@H]2CO)[C@@H](O)[C@@H](O)[C@@H]1O
Method: as §1, §2, §3

B1: Caldanaerobius polysaccharolyticus endo-β-mannanase Man5A truncation mutant Man5A-TM1, SEQ ID NO: 28 (Caldanaerobius polysaccharolyticus) (protein)
chain: AGTSGDGRFHVVGNKIVDPDGKDFIIKGVNIQGYRSWEKRSVLQDVHLIADVWKFNTVRLNCFIGQNNWGEGTGANNDIDAIIKAFTAKKVVVEIDLHDTTGYPPLSNPPPAPGQPSLDQAIAWFKELAAKYKDNPYVWFNTMNEPGSSTAPLDPQWKVANEEIIKAIRSTGADNIIVVDGWSYANEGIEQNTPTVDEKRSAVLTYGQDLLNADSAKNTIFAFHNYNEGDIQKKVEDYIDRANAKGLYVFMEEYGKDYSDAAKEGVKSGLQAVMNKGAGRIYWNWDGYDLYDLTSGTGRGSGWEINKTDGSKPTNLSWVGDKIWDDNHGITPTFDDQNPKVDLALERLIANNNGFKAGDKVQFTTFLRNSGDLPIGKDSKVVVKFYVDGVQLGDPVEISGGIAVGQRIPVTSPELTVSKTDFTVKAVIDSSSTYADGAEDAVIENNWIEAAFNSTAPSSGYELVVTGIKITPDTVKEGDYVQAQVTVANQGPEATPVTNIIGWFYVNGYYYTLDDAAKSCAEQDNVTLKPGESITLSTKVKYRAAAPFNFSFVLENLYADDQNQSNNSITVNVPVKMGEGGVNMVSNPGFEDGLDSWQDWQQDMSAVPEAAHNGALGLKIGGGKAAGGGQDIPLKPNTTYILGAWAKFDSKPAGTFDVVVQYHLKDANNTYVQHILNFNETDWTYKQLLFTTPDVFGSTPQLALWKGDTSKANLYVDDVYLVEVSNLIVNGTAENGMDGWPDWGYPVSAVPEAAYGGTKGFKLSGGKQAGMGQKVALKPNTTYILGAWGKFTAKPGTYCDVIVQYHLKDANNTYVQNILRFTETDWTYKQVVFTTPDAFGSDPEFVLWKDDASNADFYADNITLVEV
[1]
  kcat/Km: 17000 ± 4000 M⁻¹ s⁻¹
[2]
  kcat/Km: 9300 ± 2000 M⁻¹ s⁻¹
[3]
  kcat/Km: 33000 ± 3000 M⁻¹ s⁻¹
[4]
  kcat/Km: 11000 ± 2000 M⁻¹ s⁻¹
[5]
  kcat/Km: 20000 ± 2000 M⁻¹ s⁻¹
[6]
  kcat/Km: (1.2 ± 0.2) × 10^2 mM^−1 s^−1
